Legend:
[1] = biological target: Anti-CD28 Fab (SEQ ID NOs: 202, 203); test: phage binding ELISA on captured Fab, competitor CD28 antigen;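 also: clonal phage supernatant binding in wells preincubated with CD28 antigen in blocking buffer, detected by HRP-conjugated anti-M13 antibody ELISA, compared with blocking buffer alone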
Description: (§1) Clonal phage were harvested as crude supernatants and screened via standard ELISAs. […] Prior to the addition of clonal phage, wells were incubated with blocking buffer and CD28 antigen or blocking buffer alone. Without washing or aspirating, clonal phage supernatants were then added to the wells and incubated for a short time. Wells were then washed followed by detection of bound phage using a horse radish conjugated anti-M13 antibody.

[2] = biological target: Anti-CD28 Fab (SEQ ID NOs: 202, 203); test: phage binding ELISA on captured Fab;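 also: clonal phage supernatants added briefly to wells pre-incubated with CD28 antigen or with blocking buffer only, then washed, bound phage read by ELISA using HRP-coupled anti-M13 antibody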
Description: as §1

[3] = biological target: T1, anti-CD28 Fab (SEQ ID NOs: 202, 203); test: phage ELISA on captured Fab, wells pre-incubated with CD28 antigen (competitor);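 also: clonal phage ELISA with wells pretreated with CD28 plus blocking buffer before phage addition, bound phage detected by HRP-linked anti-M13 antibody, reference wells got blocking buffer only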
T1 construct: biotinylated and captured on neutravidin coated plates in the phage ELISA
Description: as §1

[4] = biological target: T1, anti-CD28 Fab (SEQ ID NOs: 202, 203); test: phage ELISA on captured Fab;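 also: ELISA with clonal phage supernatants added to wells preincubated with CD28 antigen or with blocking buffer only, bound phage detected by HRP-conjugated anti-M13 antibody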
Description: as §1

Anti-CD28 Fab (SEQ ID NOs: 202, 203), sequence (VH, as listed by the source, chain 1 of 2): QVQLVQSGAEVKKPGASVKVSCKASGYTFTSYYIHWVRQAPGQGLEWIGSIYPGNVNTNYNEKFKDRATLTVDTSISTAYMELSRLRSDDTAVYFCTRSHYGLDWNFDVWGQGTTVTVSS
Anti-CD28 Fab (SEQ ID NOs: 202, 203), sequence (VL, as listed by the source, chain 2 of 2): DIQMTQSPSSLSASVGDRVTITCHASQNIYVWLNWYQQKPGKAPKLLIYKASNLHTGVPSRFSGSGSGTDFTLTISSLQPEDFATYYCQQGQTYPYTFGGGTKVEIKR
T1 sequence (VH, as listed by the source, chain 1 of 2): as the sequence (VH, as listed by the source, chain 1 of 2) above
T1 sequence (VL, as listed by the source, chain 2 of 2): as the sequence (VL, as listed by the source, chain 2 of 2) above

| Binder | Anti-CD28 Fab signal in the presence of CD28 [1] | Anti-CD28 Fab (SEQ ID NOs: 202, 203) signal [2] | Anti-CD28 Fab signal in the presence of CD28 [3] | Anti-CD28 Fab (SEQ ID NOs: 202, 203) signal [4] |
| --- | --- | --- | --- | --- |
| YCEGHAPVYMQKCL [Phage-878] | 0.08 | 0.44 |  |  |
| YCDGHAQEYMDKCL (on phage, pIII fusion) [Phage-500] |  |  | 0.08 | 1.62 |
| YCDGHAKEYMDKCL (on phage, pIII fusion) [Phage-452] |  |  | 0.08 | 1.68 |
| YCEGHLSQYMSKCL (on phage, pIII fusion) [Phage-466] |  |  | 0.07 | 1.66 |
| YCEGHVELYRQKCL [Phage-864] | 0.06 | 0.56 |  |  |
| YCDGHSREYMSKCL (on phage, pIII fusion) [Phage-458] |  |  | 0.1 | 1.67 |
| YCDGHSREYMNKCL (on phage, pIII fusion) [Phage-469] |  |  | 0.06 | 1.66 |
| YCDGHSQIYMSKCL [Phage-882] | 0.06 | 0.42 |  |  |
| YCEGHVPQYMGKCL [Phage-869] | 0.08 | 0.5 |  |  |
| YCAGHAQEYMRKCL [Phage-872] | 0.07 | 0.49 |  |  |
| YCDGHAAEYMAKCV (on phage, pIII fusion) [Phage-459] |  |  | 0.07 | 1.67 |
| YCEGHLDEYLQKCM [Phage-867] | 0.08 | 0.51 |  |  |
| YCDGHTWMYKQKCL [Phage-886] | 0.08 | 0.4 |  |  |
| YCTGWQVAYMQNCF [Phage-884] | 0.06 | 0.42 |  |  |
| YCDGHDEQYLMKCL [Phage-879] | 0.07 | 0.44 |  |  |
| YCDGHLETYMQKCL [Phage-865] | 0.08 | 0.53 |  |  |
| YCDGHSEQYMSKCL (on phage, pIII fusion) [Phage-451] |  |  | 0.07 | 1.68 |
| YCDGHSEVYMAKCL (on phage, pIII fusion) [Phage-471] |  |  | 0.06 | 1.66 |
| YCDGHSLQYMSKCL (on phage, pIII fusion) [Phage-589] |  |  | 0.06 | 1.45 |
| YCDGHSPAYIWKCL (on phage, pIII fusion) [Phage-450] |  |  | 0.08 | 1.68 |
| YCDGHSPEYIGKCL (on phage, pIII fusion) [Phage-467] |  |  | 0.07 | 1.66 |
| YCEGHMQWYMAKCL [Phage-877] | 0.09 | 0.45 |  |  |
| YCAGHIPQYLNKCL [Phage-873] | 0.07 | 0.49 |  |  |

| Binder | Anti-CD28 Fab signal in the presence of CD28 [1] | Anti-CD28 Fab (SEQ ID NOs: 202, 203) signal [2] | Anti-CD28 Fab signal in the presence of CD28 [3] | Anti-CD28 Fab (SEQ ID NOs: 202, 203) signal [4] |
| --- | --- | --- | --- | --- |
| YCDGHSTEYMWKCL [Phage-874] | 0.06 | 0.49 |  |  |
| YCDGHAAMYMSKCL [Phage-870] | 0.07 | 0.5 |  |  |
| YCEGHAQEYMNKCL (on phage, pIII fusion) [Phage-460] |  |  | 0.06 | 1.67 |
| YCEGHAPQYMNKCL (on phage, pIII fusion) [Phage-456] |  |  | 0.08 | 1.67 |
| YCEGHAPQYMTKCL (on phage, pIII fusion) [Phage-461] |  |  | 0.08 | 1.67 |
| YCDGHWPGYLWKCL [Phage-883] | 0.06 | 0.42 |  |  |
| YCEGHLPMYMIKCL (on phage, pIII fusion) [Phage-464] |  |  | 0.09 | 1.66 |
| YCEGHLGLYMKKCL [Phage-871] | 0.06 | 0.49 |  |  |
| YCDGHIGLYLNKCL (on phage, pIII fusion) [Phage-463] |  |  | 0.06 | 1.66 |
| YCDGHSSLYMHKCL (on phage, pIII fusion) [Phage-454] |  |  | 0.07 | 1.67 |
| YCDGHSTEYMEKCL (on phage, pIII fusion) [Phage-453] |  |  | 0.08 | 1.68 |
| YCDGHSQEYMEKCL (on phage, pIII fusion) [Phage-564] |  |  | 0.06 | 1.5 |
| YCDGHSVEYMEKCL (on phage, pIII fusion) [Phage-476] |  |  | 0.09 | 1.65 |
| YCAGHLDEYMEKCL [Phage-885] | 0.07 | 0.4 |  |  |
| YCDGHSADYMAKCL (on phage, pIII fusion) [Phage-462] |  |  | 0.07 | 1.67 |
| YCDGHSWQYISKCL (on phage, pIII fusion) [Phage-455] |  |  | 0.05 | 1.67 |
| YCAGHTTEYIVKCL [Phage-868] | 0.05 | 0.5 |  |  |
| YCEGHLPQYMRPCL (on phage, pIII fusion) [Phage-465] |  |  | 0.08 | 1.66 |
| YCDGHAPQWMAKCL (on phage, pIII fusion) [Phage-457] |  |  | 0.1 | 1.67 |
| YCEGHIKDYMTKCL [Phage-875] | 0.08 | 0.47 |  |  |
| YCQGHLPIYIQKCL [Phage-866] | 0.07 | 0.51 |  |  |
| YCAGHDAEYMQKCL [Phage-876] | 0.06 | 0.46 |  |  |

— US20260274955A1 (JANUX THERAPEUTICS, published 2026)
